From PMC6812618 (Journal of biological inorganic chemistry : JBIC : a …, 2019)
Where “and” joins values, the source holds several entries; their conditions need not be identical. Identical values can stand only once.

Biological target: the molecule itself
Experiment: AUC

B1: human BOLA3 (natural protein, UniProt Q53S33 25-107, looked up)
chain: MFATQTEGELRVTQILKEKFPRATAIKVTDISGGCGAMYEIKIESEEFKEKRTVQQHQMVNQALKEEIKEMHGLRIFTSVPKR
  stoichiometry N: 2 and 4
